Measurements as given in US20040033229A1.
Values joined by “and” are separate entries in the source; they are usually repeats but may differ in a detail not shown here. Equal values may be shown once.

What was measured:
[1] = molecular target: prostate specific membrane antigen (PSMA), full-length, on the cell surface (human) (UniProt Q04609); test: fraction of radiolabel bound to cells, average
[2] = molecular target: prostate specific membrane antigen (PSMA), full-length, on the cell surface (human) (UniProt Q04609); test: fraction of radiolabel bound to cells, PSMA-3T3
[3] = molecular target: prostate specific membrane antigen (PSMA), full-length, on the cell surface (human) (UniProt Q04609); test: cell-based or functional assay

Sequence of prostate specific membrane antigen (PSMA), full-length, on the cell surface (human) (Q04609 whole entry): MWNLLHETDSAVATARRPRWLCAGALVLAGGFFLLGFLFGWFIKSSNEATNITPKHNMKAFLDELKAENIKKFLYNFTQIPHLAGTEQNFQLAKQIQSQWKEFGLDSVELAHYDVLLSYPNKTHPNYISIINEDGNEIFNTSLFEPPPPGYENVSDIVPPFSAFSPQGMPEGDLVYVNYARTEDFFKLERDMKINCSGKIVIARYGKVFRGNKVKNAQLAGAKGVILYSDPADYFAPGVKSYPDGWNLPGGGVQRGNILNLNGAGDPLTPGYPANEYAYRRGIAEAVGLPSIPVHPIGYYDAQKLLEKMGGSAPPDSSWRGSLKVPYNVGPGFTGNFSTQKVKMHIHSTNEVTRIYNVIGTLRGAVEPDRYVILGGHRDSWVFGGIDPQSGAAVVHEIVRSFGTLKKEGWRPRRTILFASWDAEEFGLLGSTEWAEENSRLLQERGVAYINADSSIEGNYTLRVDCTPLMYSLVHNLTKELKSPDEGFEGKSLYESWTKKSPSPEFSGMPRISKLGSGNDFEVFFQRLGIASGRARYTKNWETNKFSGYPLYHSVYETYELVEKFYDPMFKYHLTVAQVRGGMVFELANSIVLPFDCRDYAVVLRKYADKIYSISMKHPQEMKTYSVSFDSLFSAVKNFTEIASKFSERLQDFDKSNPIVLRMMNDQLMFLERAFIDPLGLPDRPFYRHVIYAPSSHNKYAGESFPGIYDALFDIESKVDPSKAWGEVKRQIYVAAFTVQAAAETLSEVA

| Substance | Immunoreactivity (%) [1] [%] | Immunoreactivity (%) [2] | LD50, immunotoxin cytotoxicity (Mab-Zap saporin) on C4-2 cells [3] [pM] | LD50, immunotoxin cytotoxicity (Mab-Zap saporin) on PSMA-3T3 cells [3] [pM] |
| --- | --- | --- | --- | --- |
| 111In radiolabeled mJ591 (antibody) | 56.7 | 58.5% and 54.9% | – | – |
| mAb J591 (antibody) | – | – | 88.2 | 89 |
